Assay results from IntAct's records for PubMed 16582879.

B1: Tyrosine-protein phosphatase non-receptor type 1 (Homo sapiens), P18031 (parent)
chain: MEMEKEFEQIDKSGSWAAIYQDIRHEASDFPCRVAKLPKNKNRNRYRDVSPFDHSRIKLHQEDNDYINASLIKMEEAQRSYILTQGPLPNTCGHFWEMVWEQKSRGVVMLNRVMEKGSLKCAQYWPQKEEKEMIFEDTNLKLTLISEDIKSYYTVRQLELENLTTQETREILHFHYTTWPDFGVPESPASFLNFLFKVRESGSLSPEHGPVVVHCSAGIGRSGTFCLADTCLLLMDKRKDPSSVDIKKVLLEMRKFRMGLIQTADQLRFSYLAVIEGAKFIMGDSSVQDQWKELSHEDLEPPPEHIPPPPRPPKRILEPHNGKCREFFPNHQWVKEETQEDKDCPIKEEKGSPLNAAPYGIESMSQDTEVRSRVVGGSLRGAQAASPAKGEPSLPEKDEDHALSYWKPFLVNMCVATVLTAGAYLCYRFLFNSNT

Variants of: B1
Details: with insr_human INSR

Row | effect of a mutation on the interaction | Variant
1 | increasing interaction | D181A
